In this data set the test system is MS2 coat protein. Kind of data set: apparent KD of MS2 coat protein; designed switch direction (-1 OFF switch, 1 ON switch): 1; higher = weaker reporter binding. In short, it runs like this:
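Designed RNA switches were transcribed on Illumina chips by stalled E. coli RNA polymerase and titrated with SNAP-549-labelled MS2 coat protein from 0.7 or 1.5 nM, doubling to 3 µM. Step length ran from 0.8–1.5 h at the lowest concentration to 10–20 min at the highest. The apparent KD is the median over clusters for each design, from curve-fitted normalised cluster fluorescence.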

[1] abbreviates: Eterna round: R95, input ligand: FMN 200 uM.
Where [2] appears, read: Eterna round: R95, input ligand: microRNA oligo, concentration not stated.
Setting [3] is: Eterna round: R95, input ligand: none.
Setting [4] is: input ligand: microRNA oligo, concentration not stated.

As to “CUACUACAUGAGGAUCACCCAUGUUAUAGUGAUGCAGGAUAUGUGUGACCAGAAGAUGAAACAGAAGGGCAAAGAA [JR_SS!_Sub001] (puzzle: Same State 1)”, the “apparent KD of MS2 coat protein” value by setting is: under setting [1], 31.4 nM; under setting [2], 33.1 nM; under setting [3], 30.1 nM.
On to “AGAAAUCAACGCGCACAUGAGGAUCACCCAUGUGCUCAAGCACAGGAUAUCGGCACAAGACAGGCCGAGAAGGGUGGAGCACGA [Eternabot solution 3] (Eterna round: R96, puzzle: Same State NG 3)”, for which the “apparent KD of MS2 coat protein” value (input ligand: FMN 200 uM) was found to be 14.7 nM, the “apparent KD of MS2 coat protein” value under setting [4] worked out at 19.7 nM and the “apparent KD of MS2 coat protein” value (input ligand: none) was determined as 24.1 nM.
On to “UAGAGAGGAAGCGAGGAUAUCGUGUGAGGAACAUGAGGAUCACCCAUGUGUGAUGUUGAGAGAGACGAGAAGGCGCAGGAGAUUA [JR_SS2_Sub083] (puzzle: Same State 2)”, for which the “apparent KD of MS2 coat protein” value worked out at 87.5 nM under setting [1], 150 nM under setting [2] and 140 nM under setting [3].
For “CAAGAAAACGCAGGAUAUACCCGAACAACCCGGGUAGAAGGGUGACACAUGAGGAUCACCCAUGUACAUGGCAUUAGCCAUGGA [Esusxebeis] (Eterna round: R96, puzzle: Same State NG 1)”, the “apparent KD of MS2 coat protein” value is 1020 nM (input ligand: FMN 200 uM), 262 nM under setting [4] and 430 nM (input ligand: none).
In the same order, the values of “UGUUGUAUUACAGGAUAUCUAUUGUUUUUAGUUAGAGAAGGGUAUUCACAUGAGGAUCACCCAUGUAUAUACGAGGAAGUUGUG [JMF's solution 82] (Eterna round: R96, puzzle: Same State NG 1)” are 59.9 nM, 34.6 nM and 49.9 nM.
In the same order, the values of “AAAACAUGACGAGGAUAUGGAACAUGAGGAUCACCCAUGUAUGUUCCAUAACGCGAAUGACGAAUCCAGAAGGCGUCGUGAAAA [Mat - Same State NG 2 - JL mod - D27] (Eterna round: R96, puzzle: Same State NG 2)” are 25.1 nM, 181 nM and 272 nM.
On to “GUAGAUAUAACGGAGGAUAUUCAAUGAGAGACAUGAGGAUCACCCAUGUAAGAGUGAGAUGAUAGGAAGAAGGCUGAGAGAGAUG [Altered State 2-9 - Jieux - Same State 2] (puzzle: Same State 2)”, for which the “apparent KD of MS2 coat protein” value reads like this: under setting [1], 140 nM; under setting [2], 139 nM; under setting [3], 102 nM.
In the same order, the values of “AAUUAUUAACAUGAGGAUCACCCAUGUAUUAUUAUUAUUAUUAACAAGCUUUUUCAUGUUAUUAGCUCGUCUUAUAA [Bojan's Design 2] (puzzle: Sensor for hsa-mir-208a version 2)” are 16.5 nM, 31.7 nM and 15.4 nM.
With “GGUGGGUUGCUGCCGGCACAUGAGGAUCACCCAUGUUUUGGGAAGGAUAUGGUACCUGUUUGGUGCCAGAAGGUCCCGUUGGUG [salish99_SSNG3_r04_711] (Eterna round: R96, puzzle: Same State NG 3)”, the “apparent KD of MS2 coat protein” value by setting is: (input ligand: FMN 200 uM) 864 nM; under setting [4], 526 nM; (input ligand: none) 522 nM.
Take “GAAUAGUUGAGAGGAUAUCUAUGAUAAAAGGAUAGAGAAGGUUUUAACAUGAGGAUCACCCAUGUAGGACUAUAUAUGUGAAUA [Parity 82 - Jieux - Same State NG 1] (Eterna round: R96, puzzle: Same State NG 1)”: the “apparent KD of MS2 coat protein” value was found to be 12.5 nM (input ligand: FMN 200 uM), 11.9 nM under setting [4] and 16.9 nM (input ligand: none).
The corresponding values for “CGUCGUUUGAUAGGAUAUCGCUUUGCAUGAGGAUCACCCAUGUUUACCACGCUGGUUUUUCUUUCCGAGAAGGAUUCUGAUGUU [salish99_SSNG02_r04_024] (Eterna round: R96, puzzle: Same State NG 2)” are 42 nM, 29.2 nM and 39.6 nM.
“GCUCGAUGAGCGUUUUACAUGAGGAUCACCCAUGUUCGUGGGCAGGAUAUUUACGUGCGGAGUGUAGAGAAGGGCCCAUCGAGC [SameState NG3 #68] (Eterna round: R96, puzzle: Same State NG 3)”: the “apparent KD of MS2 coat protein” value reads like this: (input ligand: FMN 200 uM) 71.3 nM; under setting [4], 391 nM; (input ligand: none) 674 nM.
In the case of “CUUUUUAAUGCAGGAUAUGAUCAACAUGAGGAUCACCCAUGUGGUGUUGUGAGUAAGGAGAGUGAUCAGAAGGGCAUCUUUUCA [SS-NG2-LRO04] (Eterna round: R96, puzzle: Same State NG 2)”, the “apparent KD of MS2 coat protein” value reads like this: (input ligand: FMN 200 uM) 737 nM; under setting [4], 415 nM; (input ligand: none) 435 nM.
Turning to “AGUCCAGCCUGAGCUGGACAAAAGCAUGUACAUGAGGAUCACCCAUGUUCAUGUACAAGCUUUUUGCUCGUCUUGGA [salish99_208a_r3_103x] (puzzle: Sensor for hsa-mir-208a)”, the “apparent KD of MS2 coat protein” value runs as follows: under setting [1], 350 nM; under setting [2], 16.2 nM; under setting [3], 505 nM.
As to “UUGAUUAACGUAGGAUAUCGACCUACAUGAGGAUCACCCAUGUCUUUGUAUAGUUUUUUUUGUUACGAGAAGGACGUUAUGUAU [JR_SSNG2_Sub067] (Eterna round: R96, puzzle: Same State NG 2)”, the “apparent KD of MS2 coat protein” value by setting is: (input ligand: FMN 200 uM) 78.6 nM; under setting [4], 100 nM; (input ligand: none) 106 nM.
Take “UCAACUUUUUUUAGUGUGUUGCCAGGUUAACAUGAGGAUCACCCAUGUAAAGUAUAGUGGGAUUAAGUUCGUCUUAA [JR_SHM208A_Sub072] (puzzle: Sensor for hsa-mir-208a)”: the “apparent KD of MS2 coat protein” value by setting is: under setting [1], 77.2 nM; under setting [2], 83.6 nM; under setting [3], 93.9 nM.
In the same order, the values of “CGUCCGGCCUGAGCUGGACGGAAGCUUGUACAUGAGGAUCACCCAUGUUCAUGUGCAGGCUUUUUGCUCGUCUUGUG [salish99_mir208a_modof_jandersonlee] (puzzle: Sensor for hsa-mir-208a)” are 19.8 nM, 18.8 nM and 23.4 nM.
For “AGCUAUUACGCAGGAUAUAGGGACAUGAGGAUCACCCAUGUGUACAUGAGUAAAUGUGAUCACGUCUAGAAGGGUGUACUAACA [SameState NG2 #37] (Eterna round: R96, puzzle: Same State NG 2)”, the “apparent KD of MS2 coat protein” value (input ligand: FMN 200 uM) turned out to be 684 nM, the “apparent KD of MS2 coat protein” value under setting [4] turned out to be 326 nM and the “apparent KD of MS2 coat protein” value (input ligand: none) turned out to be 321 nM.
“GUUAUACAUGAGGAUCACCCAUGUCAAUGUAGUCGAGGAUAUGGGCAGCUAUGAGGCGUACUAGAAGGCGAGAAGU [Mat - Same State 1 - Mod of JL - D15] (puzzle: Same State 1)”: the “apparent KD of MS2 coat protein” value under setting [1] was 125 nM, the “apparent KD of MS2 coat protein” value under setting [2] was determined as 268 nM and the “apparent KD of MS2 coat protein” value under setting [3] amounted to 437 nM.
The corresponding values for “AUUAAACAUGAGGAUCACCCAUGUCAACAAUGUCGAGGAUAUGGGCAAAUAAAAUAAGAACCAGAAGGCGAAUAAU [salish99_ss1_r3_076] (puzzle: Same State 1)” are 39.9 nM, 426 nM and 303 nM.
The corresponding values for “AAGGGAUGAGCGUAGGAUAUAGGAGAAGUGACAUGAGGAUCACCCAUGUAGGAGGAGGGAUGAGACUAGAAGGACGAGGUAGGAG [JR_SS2_Sub060] (puzzle: Same State 2)” are 43.6 nM, 56.7 nM and 76.8 nM.
Take “GUGCUCGUGUGAGGAUAUGCUUCCGUUUCGGCUGCAGAAGGUACUAUUAUACAUGAGGAUCACCCAUGUCUCUUUUGUUUGGUG [salish99_SSNG1_r04_910] (Eterna round: R96, puzzle: Same State NG 1)”: the “apparent KD of MS2 coat protein” value runs as follows: (input ligand: FMN 200 uM) 95 nM; under setting [4], 51.9 nM; (input ligand: none) 67.8 nM.
Turning to “ACAUUUAGCUCUUGCACAUGAGGAUCACCCAUGUUCGGUUCACAGGAUAUCUAGUCAAACGGGCUGGAGAAGGGUGGCAGGAGC [Islainon] (Eterna round: R96, puzzle: Same State NG 3)”, the “apparent KD of MS2 coat protein” value reads like this: (input ligand: FMN 200 uM) 67.9 nM; under setting [4], 200 nM; (input ligand: none) 289 nM.
In the case of “UCUUGGUUUUUGCUCGUUUUUUGUGUUGAACAUGAGGAUCACCCAUGUAUUGUACGGUCCGGUUUGGUAAUGGUCCA [JMF 9] (puzzle: Sensor for hsa-mir-208a)”, the “apparent KD of MS2 coat protein” value under setting [1] was 55.7 nM, the “apparent KD of MS2 coat protein” value under setting [2] turned out to be 41.8 nM and the “apparent KD of MS2 coat protein” value under setting [3] is 63.6 nM.
Regarding “UGUUAUUAGACAGGAUAUUGAAUGUUAAGUAUUAACAUGAGGAUCACCCAUGUAUUUCAUUCGUACAAGAAGGGUCAUGUUCCU [JR_SSNG2_Sub017] (Eterna round: R96, puzzle: Same State NG 2)”, under setting [4], the “apparent KD of MS2 coat protein” value was found to be 162 nM.
Regarding “AUCCGGAAGCGAGGAUAUGCAGAGGAUCACCCUGCAGAAGGCGCGAUCGCGAGGAUAUGCAGAGGAUCACCCUGCAGAAGGCGC [pwkr ssNG DX.31] (Eterna round: R96, puzzle: Same State NG 1)”, the “apparent KD of MS2 coat protein” value by setting is: (input ligand: FMN 200 uM) 15.5 nM; under setting [4], 20.3 nM; (input ligand: none) 25.1 nM.
In the same order, the values of “AUUACUAACAUAGGAUAUCAUGCGAAAAUUGCGUGAGAAGGGUGGACACUGUCUUUCUCGGAGCACAUGAGGAUCACCCAUGUG [SameState NG1 #69] (Eterna round: R96, puzzle: Same State NG 1)” are 81.4 nM, 41.5 nM and 65 nM.

Source of the values: the supplement of paper PMC9170038.
